Measurements as given in patent US20130064825A1.

Experiments:
[1] = molecular target: cynomolgus monkey PCSK9, V5-6xHIS tagged (cynomolgus monkey); assay: KinExA solution equilibrium, PCSK9-coated beads
[2] = molecular target: cynomolgus monkey PCSK9, V5-6xHIS tagged (cynomolgus monkey); assay: SPR (Biacore 2000), antibody amine-coupled on CM5 chip, PCSK9 injected, pH 7.4

Kd [1]: 0.002 nM
Kd [2]: 0.19 nM
Substance: 31H4, anti-PCSK9 huIgG4 (antibody)
